Patent US20220195037A1 (AstraZeneca / MedImmune, published 2022)

Molecular target: T1, Lectin-like oxidized low density lipoprotein receptor-1 (LOX1), expressed on cells (UniProt P78380 1-273, limits assumed)
T1 construct: whole, on cells; Also used as the target for the functional rows, where it is endogenous LOX1 on patient-derived pancreatic tumor cells, cancer cell lines and cardiomyocytes; also called LOX1-expressing cells; cells overexpressing LOX1
Assay: Western blot of lysates of human aortic endothelial cells, membrane probed with LX5140110 at 1 µg/ml and anti-human-Fc-HRP
From the text: Inhibition of LOX1 can reduce chemotherapy-induced cardiomyocyte damage. While the combination of chemotherapy and anti-CSC targeted therapies will likely be useful in the clinic, it is known that many chemotherapies have unintended harmful side effects in addition to anti-tumor activity. One such side effect is cardiac damage that can lead to cardiomyocyte death and heart failure. […] First, we examined the expression of LOX1 in response to doxorobucin treatment in human aortic endothelial cells (HAEC) and embryonic stem cell derived cardiomyocytes. Oxidized LDL (Ox-LDL) is a conventional ligand of LOX1 and was added as a control, since previous reports show an increase of LOX1 in response to Ox-LDL in rat cardiac muscle cells (Spallarossa et al., (2005)). Forty-thousand cells were plated in a 96-well plate and treated with media alone or media containing 5 μM doxorubicin for 24 hours. The cells were then scraped and lysed with 1× RIPA buffer containing protease inhibitors on ice for 1 h. Loading buffer was added to each sample followed by heating for 10 min at 90° C. Twelve microliters of sample was loaded per lane in a 4-12% bis-tris gradient gel. The gels were run for 40 min at 200V in MOPS buffer. The proteins were transferred onto a nitrocellulose membrane using iBlot. The membrane was blocked overnight with casein solution. […]

B1: LX5140110 (antibody, V domains shown)
VH: QVQLVQSGAEVKKPGASVKVSCKVSGYTLTELSMHWVRQAPGKGLEWMGGFDPEDFKYHTHQKFQGRVTMTEDTSTDTAYMELSSLRSEDTAVYYCALVWGTQGKGVRGWDYYYGMDVWGQGTTVTVSS
VL: QSVVTQPPSVSGAPGQRVTISCTGSSSNIGAGYDVHWYQQLPGTAPKLLIYGNSNRPSGVPDRFSGSKSGTSASLAITGLQAEDEADYYCQSYDSSLSGWVFGGGTKLTVL
notes: Monoclonal antibody; It was detected with an anti-human-Fc antibody, and the controls were non-specific IgG1; also called LOX1-specific monoclonal antibody; LOX1 monoclonal antibody
  binding result: binds
